Experiment: yeast display, Sf9 membrane polyspecificity reagent, FACS + sequencing; frameworks hold sequencing errors
Method in brief: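 A synthetic nanobody library was expressed on Saccharomyces cerevisiae BJ5465 by galactose induction for 36–48 hours. The library was stained for 1 hour at 4 °C with 10% biotinylated, detergent-solubilized Sf9 membrane reagent and enriched with streptavidin microbeads before FACS. Low and high (top ~1%) gates were set on anti-HA fluorescence for expression and streptavidin fluorescence for reagent binding, and each polyreactivity label reflects the gate of origin.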

QVQLVESGGGLVQAGGSLRLSCAASGYIFGWNAMGWYRQAPGKERELVAAISSSGGNTYYADSVKGRFTISRDNAKNTVYLQMNSLKPEDTAVYYCARSYPYRYDYWGQGTQVTVSS
polyreactivity (PSR sort gate): low polyreactivity

QVQLVESGGGLVQAGGSLRLSCAASGYIFGWYTMGWYRQAPGKERELVAAISGGGRTYYADSVKGRFTISRDNAKNTVYLQMNSLKPEDTAVYYCNDYSSYIKYDYWGQGTQVTVSS
polyreactivity (PSR sort gate): high polyreactivity

QVQLVESGGGLVQAGGSLRLSCAASGYIFGYYAMGWYRQAPGQEREFVAAINWSGGSTYYADSVNGRFTISRDNAKNTVYLQMNSLKPEDTAVYYCARSYRSRVVYKFGYWGQGTQVTVSS
polyreactivity (PSR sort gate): high polyreactivity

QVQLVESGGGLVQAGGSLRLSCAASGYIFGYYVMGWYRQAPGKERELVAAISGRGGRTYYADSVKGRFTISRDNAMNTVYLQMNSLKPEDTAVYYCAAADLPGTMYYWGQGTQVTVSS
polyreactivity (PSR sort gate): high polyreactivity

QVQLVESGGGLVQAGGSLRLSCAASGYIFGYYVMGWYRQAPGKERELVAAITGRGGSTYYADSVKGRFTISRDNAKNTVSLQMNSLKPEDTAVYYCAADATTYPYDPWHLYEIWEYYYWGQGTQVTVSS
polyreactivity (PSR sort gate): low polyreactivity

QVQLVESGGGLVQAGGSLRLSCAASGYIFHDNAMGWYRQAPGKERELVAGITTGGSTYYADSVKGRFTISRDNAKYTVYLQMNSLKPEDTAVYYCAAKVWSRSFYKYYYWGQGTQVTVSS
polyreactivity (PSR sort gate): high polyreactivity

QVQLVESGGGLVQAGGSLRLSCAASGYIFHRYAMGWYRQAPGKERELVAAISWRVTSTFYADSVKGRFTISRDNAKNTVYLQMNCLKPEDTAVYYCASVKWVGYKYWSSRKYDYWGQGTQVTVSW
polyreactivity (PSR sort gate): high polyreactivity

QVQLVESGGGLVQAGGSLRLSCAASGYIFHSYVMGWYRQAPGKERELVAAITSDDDSTFYADSVKGRFTISRDNAKNTVYLQMNSLKPEETGVYYCAADGYYQYDKDTYYSTSDYWGQGTQVTVSS
polyreactivity (PSR sort gate): low polyreactivity

QVQLVESGGGLVQAGGSLRLSCAASGYIFIRNAMGWYRPAPGKDRELVAAISWTGGNTYYADSVKGRFTISRDNAKNTVYLQMNSLKPEDTAVYYCAALRSVFKSFRTTYVRYDYWGQATQVTVSS
polyreactivity (PSR sort gate): high polyreactivity

QVQLVESGGGLVQAGGSLRLSCAASGYIFIWYDMGWYRQAPGKERELVAAISGSGGSTYYADSVKGRFTISRDNAKNTVYLQMNSLKPEDTAVYYCAAYVPRGNSEVIAMDYWGQGTQVTVSS
polyreactivity (PSR sort gate): low polyreactivity

QVQLVESGGGLVQAGGSLRLSCAASGYIFKIKAMGWYRQAPGKERELVATITWSTGTTYYADSVKGRFTISRDNAKNTVYLQMNSLKPEDTAVYYCNATAIIRIGVLPGDYWGQGTQVTVSS
polyreactivity (PSR sort gate): low polyreactivity

QVQLVESGGGLVQAGGSLRLSCAASGYIFKRYAIGWNRQAPGKERELVAAISGNGGSTYYADSVKGRFTISRDNAKNTVYFQMNSLKPEDTAVYYCNKSGYYSPTSKGEYWGQGTQVTVSS
polyreactivity (PSR sort gate): low polyreactivity

QVQLVESGGGLVQAGGSLRLSCAASGYIFKRYAMGWYRQAPGKERELVAAISSRGGSTYYADSVKGRFTISRDNAKNTVYLQMNSLKPEDTAVYYCAAVSWFRNYYWGQGTQVTVSS
polyreactivity (PSR sort gate): high polyreactivity

QVQLVESGGGLVQAGGSLRLSCAASGYIFKYNTMGWYRQAPGKERELVAAISTGGNTYYADSVKGRFTISRDNAKNTVYLQMNSLKPEDTAVYYCAALSGAHEHFVEYDYWGQGTQVTVSS
polyreactivity (PSR sort gate): low polyreactivity

QVQLVESGGGLVQAGGSLRLSCAASGYIFLAYAMGWYRQAPGKERELVADNTYADSVKGRFTISRDNAKNTVYLQMNSLKPEDTAVYYCNADEVYDEYSYDYWGQGTQVTVSS
polyreactivity (PSR sort gate): low polyreactivity

QVQLVESGGGLVQAGGSLRLSCAASGYIFLRNALGWYRQAPGKERELVAAIRRTGGSTYYADSVKGRFTISRDNAKNTVYLQMNSLKPEDTAVYYCAKRSYTGYEYWGQGTQVTVSS
polyreactivity (PSR sort gate): low polyreactivity

QVQLVESGGGLVQAGGSLRLSCAASGYIFPEYVMGWYRQAPGKERELVAVITWDGTSTYADSVKGRFTISRDNAKNTVYLQMNSLKPEDTAVYYCAADTNYYVDTAGYGDGLDSWGQGTQVTVSS
polyreactivity (PSR sort gate): low polyreactivity

Source: the nanobody polyreactivity screen of Harvey et al. (2022)
